Test system: T1, SC_RAG single-chain meganuclease (I-CreI derived) (artificial sequence)
T1 sequence: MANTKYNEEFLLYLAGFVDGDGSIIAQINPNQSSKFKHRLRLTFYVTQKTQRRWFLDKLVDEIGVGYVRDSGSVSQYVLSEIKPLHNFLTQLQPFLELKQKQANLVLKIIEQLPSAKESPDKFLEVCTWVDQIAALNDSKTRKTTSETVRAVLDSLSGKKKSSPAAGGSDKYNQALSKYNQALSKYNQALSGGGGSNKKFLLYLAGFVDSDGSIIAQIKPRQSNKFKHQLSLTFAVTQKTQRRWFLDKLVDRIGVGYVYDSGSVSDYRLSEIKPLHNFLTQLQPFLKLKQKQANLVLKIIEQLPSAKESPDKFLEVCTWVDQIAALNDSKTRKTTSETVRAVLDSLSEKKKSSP
Test: cell_activity
Conditions: endogenous locus in 293H, siRNA control AS, deep sequencing, +/-0.13

For “endogenous human RAG1 locus target of SC_RAG”, the activity (% NHEJ mutagenesis) was 0.66.
